Article doi:10.1101/2025.02.07.637128 (bioRxiv, 2025)
Several values for one entry are separate records, joined by “and”; a condition that tells them apart may be missing. Equal values may be shown once.

What was measured:
Concanavalin A = test: resistive pulse sensing with PLY nanopores
[1] = biological target: the molecule itself

Molecule	stoichiometry N (Concanavalin A)	stoichiometry N [1]
Concanavalin A (natural protein)	2 and 4	
Pneumolysin (PLY) toxin (natural protein) MANKAVNDFILAMNYDKKKLLTHQGESIENRFIKEGNQLPDEFVVIERKKRSLSTNTSDISVTATNDSRLYPGALLVVDETLLENNPTLLAVDRAPMTYSIDLPGLASSDSFLQVEDPSNSSVRGAVNDLLAKWHQDYGQVNNVPARMQYEKITAHSMEQLKVKFGSDFEKTGNSLDIDFNSVHSGEKQIQIVNFKQIYYTVSVDAVKNPGDVFQDTVTVEDLKQRGISAERPLVYISSVAYGRQVYLKLETTSKSDEVEAAFEALIKGVKVAPQTEWKQILDNTEVKAVILGGDPSSGARVVTGKVDMVEDLIQEGSRFTADHPGLPISYTTSFLRDNVVATFQNSTDYVETKVTAYRNGDLLLDHSGAYVAQYYITWDELSYDHQGKEVLTPKAWDRNGQDLTAHFTTSIPLKGNVRNLSVKIRECTGLAWEWWRTVYEKTDLPLVRKRTISIWGTTLYPQVEDKVEND		35 ± 2 monomers
